Changes are numbered by the printed parent chain.
T1: human MerTK extracellular domain (ECD), recombinant (human, UniProt Q12866 21-505)
T1 construct: also called huMerTK; not shown: polyHis tag or TEVS/Thrombin/murine IgG2a Fc tag
T1 sequence: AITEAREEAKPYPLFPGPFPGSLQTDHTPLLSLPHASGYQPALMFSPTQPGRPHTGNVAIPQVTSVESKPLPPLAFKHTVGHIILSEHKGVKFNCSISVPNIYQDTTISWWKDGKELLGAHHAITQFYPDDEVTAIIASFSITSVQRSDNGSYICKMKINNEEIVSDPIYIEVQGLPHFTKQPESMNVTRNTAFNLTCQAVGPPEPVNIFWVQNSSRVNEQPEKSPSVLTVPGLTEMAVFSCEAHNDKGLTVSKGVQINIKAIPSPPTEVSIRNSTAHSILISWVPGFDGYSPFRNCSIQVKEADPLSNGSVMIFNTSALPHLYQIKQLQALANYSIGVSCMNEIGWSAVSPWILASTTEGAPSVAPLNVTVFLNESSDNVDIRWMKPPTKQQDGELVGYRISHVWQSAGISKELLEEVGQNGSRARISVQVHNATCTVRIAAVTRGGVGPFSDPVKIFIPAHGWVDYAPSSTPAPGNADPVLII

T2: cyno MerTK extracellular domain (ECD), recombinant (cynomolgus monkey, UniProt Q12866 21-505 (human entry))
T2 construct: also called cynomolgus MerTK; not shown: polyHis tag or TEVS/Thrombin/murine IgG2a Fc tag
T2 chain: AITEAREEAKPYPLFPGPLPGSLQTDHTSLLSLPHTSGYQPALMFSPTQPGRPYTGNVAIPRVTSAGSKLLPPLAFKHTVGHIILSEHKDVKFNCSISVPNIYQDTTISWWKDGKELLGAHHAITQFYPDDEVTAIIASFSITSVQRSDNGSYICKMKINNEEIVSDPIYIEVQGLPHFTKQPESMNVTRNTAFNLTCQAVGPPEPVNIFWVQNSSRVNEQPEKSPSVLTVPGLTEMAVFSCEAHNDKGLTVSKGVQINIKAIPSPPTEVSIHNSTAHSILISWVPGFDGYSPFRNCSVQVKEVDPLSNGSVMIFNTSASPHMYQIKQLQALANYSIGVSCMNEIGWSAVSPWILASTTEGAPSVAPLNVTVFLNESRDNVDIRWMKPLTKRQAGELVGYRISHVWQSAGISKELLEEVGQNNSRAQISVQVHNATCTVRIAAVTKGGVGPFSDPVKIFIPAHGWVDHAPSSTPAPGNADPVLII

T3: murine MerTK extracellular domain (ECD), recombinant (mouse, UniProt Q60805 19-497)
T3 construct: also called moMerTK; mouse MerTK; not shown: polyHis tag or TEVS/Thrombin/murine IgG2a Fc tag
T3 sequence: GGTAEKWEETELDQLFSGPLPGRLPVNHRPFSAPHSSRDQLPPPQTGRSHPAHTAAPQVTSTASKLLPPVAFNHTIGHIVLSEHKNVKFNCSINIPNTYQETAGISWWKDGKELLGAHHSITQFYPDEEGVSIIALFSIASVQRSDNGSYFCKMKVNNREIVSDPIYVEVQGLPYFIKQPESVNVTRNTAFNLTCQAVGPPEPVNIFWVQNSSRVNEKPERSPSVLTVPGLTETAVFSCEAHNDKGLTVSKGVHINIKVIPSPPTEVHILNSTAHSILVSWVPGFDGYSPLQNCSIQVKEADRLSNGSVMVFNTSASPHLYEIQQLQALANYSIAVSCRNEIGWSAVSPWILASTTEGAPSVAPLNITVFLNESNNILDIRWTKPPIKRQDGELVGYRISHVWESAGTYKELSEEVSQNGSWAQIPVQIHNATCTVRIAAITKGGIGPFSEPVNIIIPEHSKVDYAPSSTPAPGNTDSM

B1: MTK-31 (antibody, human IgG1, V domains shown)
VH: QIQLVQSGPELKKSGETVKISCKASGYTFTSYGMSWVKQAPGKGLKWMGWINTYSGVPTYADDFKGRFAFSLETSASTAYLQINNLKNEDTATYFCASLSYDGSLYHAMDYWGQGTSVTVSS
VL: DVSMTQTPLSLPVSLGDQASISSRSSQTIVHSNGNTYLEWYLQKPGQSPKLLIYKVSNRFSGVPDRFSGSGSGTDFTLKISRVEAEDLGVYYCFQGSHVPWTFGGGTKLEIK
B2: MTK-32 (antibody, human IgG1, V domains shown)
VH: QIQLVQSGPELKKPGETVKISCKASGYTFTSYGMSWVHQAPGKGLKWLGWINTYSGVPTYADDFRGRFAFSLDTSVSTASLEINNLQNEDTATYFCAREDNWAWFAYWGQGTLVTVST
VL: QIVLSQSPAILSASPGEKVTMTCRATSSVGYMHWYQRKPGSSPKPWIYATSNLASGVPARFSGSGSGTSYSLTISRVEAEDAATYYCQQWSSNPRTFGGGTKLEIK
B3: MTK-35 (antibody, human IgG1, V domains shown)
VH: QVLLQQSGPELVKPGASVQLSCKASDYTFTSYDIHWVKQRPGQGLEWIGWIYPRDGYTKYNEIFKGKATLTVDTSSTTAYMELHSLTSEDSAVYFCARAYYTNWYYFDYWGQGTTLTVSS
VL: EIVLTQSPTTMAASPGEKITITCRASSSISSHYLHWYQQKPGFSPKLLIYRTSNLASGVPARFSGSGSGTSYSLTIGTMEAEDVATYYCQQGSTIPLTFGAGTKLVLK
B4: MTK-36 (antibody, human IgG1, V domains shown)
VH: QVTLKESGPGILQPSQTLSLTCSFSGFSLSTFGMGVGWIRQPSGKGLEWLAHIWWYDDKYYEPALKSRLTISKDSSKNQVFLKIANVDTADTATYYCARIYYGTSYRYFDVWGTGTTVTVSS
VL: B2 VL with S14F, G30R, R37Q, S51Y, A54T, Q88H, R95Y
B5: MTK-14 (antibody, human IgG1, V domains shown)
VH: QIQLVQSGPELKKPGETVKISCKASGYTFTNYGMNWVKQAPGKDLQWMGWINTYTGEPTYADDFTGRFAFSLETSASTAYLQINNLKNEDTATYFCAKGGHYAWFAYWGQGTLVTVSA
VL: B2 VL with A25S, T26S, G30S, R37Q, A59G, S91G
B6: MTK-02 (antibody, human IgG1, V domains shown)
VH: QIQLVQSGPELKQPGETVKISCKASGYTFTDYGVNWVKQAPGKGLKWMGWINTYSGEPTYAGDFKGRFAFSLESSASTAFLQINNLKNEDMATYFCARRVRYWYFDVWGAGTSVTVSS
VL: B2 VL with K18R, T26N, G30S, R37Q, G63A, I74V, S91G, R95F, G99S
B7: MTK-08 (antibody, human IgG1, V domains shown)
VH: B6 VH with Q13K, D31N, V34M, S55T, G62D, S74T, F80Y, M91T, R99E, S113T
VL: B2 VL with G30S, Y35F, R37Q, T84A, Q89H, S92G

Assays:
Assay in all cases: SPR, Carterra LSA, antibody immobilised
[1] = target: T1, human MerTK extracellular domain (ECD), …
Summary of the method: (§1)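 Anti-MerTK antibodies diluted to 10 μg/ml in 10 mM Acetate, pH 4.25 were amine-coupled in a 96-spot array onto an HC200M chip activated with MES/sulfo-NHS/EDC, then blocked with 1M Ethanolamine pH 8.5. On a Carterra LSA, recombinant MerTK extracellular domain was injected at 33.3, 100, and 300 nM in HBS-TE with 0.5 mg/ml BSA, lowest to highest without regeneration. KD came from fitted k-on and k-off.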

[2] = target: T2, cyno MerTK extracellular domain (ECD), …
Summary of the method: as §1

[3] = target: T3, murine MerTK extracellular domain …
Summary of the method: as §1

Row | Binder | Kd [1] | Kd [2] | Kd [3] | binding result [3]
1 | B1 | 81 nM | 91 nM | 165 nM | 
2 | B2 | 59 nM | 107 nM | 186 nM | 
3 | B3 | 14 nM | 13 nM |  | no binding (tested: 300 nM)
4 | B4 | 6.4 nM | 5.9 nM |  | no binding (tested: 300 nM)
5 | B5 | 45 nM | 53 nM |  | no binding (tested: 300 nM)
6 | B6 | 22 nM | 24 nM |  | no binding (tested: 300 nM)
7 | B7 | 37 nM | 42 nM |  | no binding (tested: 300 nM)

Source: patent US20210261685A1 (Alector, published 2021)
